# Laboratory results reported in patent US20250066490A1 (PROFOUNDBIO US, published 2025).
# T1: human CD70 recombinant protein (human, UniProt P32970 39-193, limits assumed)
# T1 construct: May be the same reagent as ACRO CDL-H5246; also called CD70 protein
# T1 sequence (looked up): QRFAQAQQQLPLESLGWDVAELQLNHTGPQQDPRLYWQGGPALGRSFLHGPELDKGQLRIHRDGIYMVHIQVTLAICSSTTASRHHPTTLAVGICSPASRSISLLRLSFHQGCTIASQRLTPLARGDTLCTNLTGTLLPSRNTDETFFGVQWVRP
# T2: human CD70 extra-cellular domain (ECD) linked to His tag (human, UniProt P32970 39-193)
# T2 construct: extracellular domain; also called Hu CD70; HU CD70; not shown: His tag
# T2 sequence (looked up): T1 sequence (looked up)
# T3: CD70 ECD (antigen immobilized on the CM5 chip) (UniProt P32970 39-193)
# T3 construct: extracellular domain; also called CD70 antigen
# T3 sequence (looked up): T1 sequence (looked up)
# T4: human CD70 expressed on the cell surface of tumor cell lines (human, UniProt P32970 1-193)
# T4 construct: whole, on cells
# T4 sequence (looked up): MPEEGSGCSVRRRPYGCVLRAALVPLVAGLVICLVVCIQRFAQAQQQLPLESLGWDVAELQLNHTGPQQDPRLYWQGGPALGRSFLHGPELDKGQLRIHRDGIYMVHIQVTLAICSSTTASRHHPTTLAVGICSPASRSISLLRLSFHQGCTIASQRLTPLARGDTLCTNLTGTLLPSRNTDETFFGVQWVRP
# B1: 2E7, full IgG (antibody, V domains shown)
# VH: QVQLQESGPGLVKPSETLSLTCTVSGGSVSSDYYYWSWIRQPPGKGLEWLGYIYYSGSTNYNPSLKSRVTISVDTSKNQFSLKLRSVTTADTAVYYCARGDGDFLGVCFDYWGQGTLVTVSS
# VL: EIVLTQSPATLSLSPGERATLSCRASQSVSSYLAWYQQKPGQAPRLLIFDASNRATGIPARFSGSGSGTDFTLTISSLEPEDFAVYYCQQRSNWPLTFGGGTKVEIK
# Experiments:
# [1] = biological target: T1, human CD70 recombinant protein; assay: ELISA, IgG titrated on coated human CD70 recombinant protein (2 µg/ml), anti-human Fc-HRP, OD450
# Method: (§1) The binding specificity of the CD70 antibodies was tested by ELISA according to a standard protocol. Briefly, 96-well micro-plates were coated with 2 μg/ml of human or cynomolgus CD70 recombinant protein in PBS at 100 μl per well and incubated overnight at 4° C. The plates were washed twice with TBS+0.5% Tween20. 200 μL of blocking buffer (2% BSA in PBS) was added to each well, and the plates were incubated at 37° C. for 2 hours. The plates were washed using the wash buffer mentioned above. Serially diluted antibodies were added to the ELISA plates using 100 μl per well, and the plates were incubated for 1 hour at room temperature. Then plates were washed 3 times. HRP conjugated anti-human Fc antibody solution (Sigma, I18885-2ML, diluted with blocking buffer) was added to the plates using 100 μl per well. The plates were incubated at room temperature for 1 hour and then washed 3 times. Then the TMB solution was added to plates using 100 μl per well and the plates were placed at RT for 5-15 mins. Then the stop solution (2M H2SO4) was added using 50 μl per well. The absorbance was measured at A450 and A630.
# [2] = biological target: T2, human CD70 extra-cellular domain (ECD) …; assay: BLI (Octet RED), antibody on anti-human Fc tips, CD70 ECD-His at 100 nM
# Method: Recombinant proteins consisting of human, rat, or mouse CD70 extra-cellular domain (ECD) linked to His tag was purchased (from ACRO systems). 69A7 and 2E7 (20 nM) were immobilized on anti-human IgG Fc biosensor tips (ForteBio). Binding assays using one concentration (100 nM) of recombinant protein in solution were performed using Octet RED (ForteBio). Association time was set at 180s and dissociation time was set at 300s. Binding affinity was calculated using ForteBio Data Acquisition 6.3 software. Affinity was derived by fitting the kinetic data to a 1:1 Langmuir binding model utilizing global fitting algorithms. […] 2E7 had no cross-reactivity to rat or mouse CD70 (Table 10).
# [3] = biological target: T3, CD70 ECD (antigen immobilized on the …); assay: SPR (Biacore T200), CD70 ECD on CM5 chip
# Method: (§2) The immobilization of antigen CD70 ECD was performed at 25° C. with HBS-EP as the running buffer. Sensor chip surface of flow cells 1, 4 were activated by freshly mixed 50 mmol/L N-Hydroxy succinimide (NHS) and 200 mmol/L 1-ethyl-3-(3-dimethylaminopropyl) carbodiimide hydrochloride (EDC) for 420s (10 μL/min). Afterwards, CD70 antigen diluted in 10 mmol/L NaAC (pH 4.5) was injected into flow cell 4 to achieve conjugation of the appropriate Response Unit, while flow cell 1 was set as a blank. After the amine coupling reaction, the remaining active coupling sites on chip surface were blocked by 420s injection of 1 mol/L ethanolamine hydrochloride.
# (§3) The assay was performed at 25° C. and the running buffer was HBS-EP. Diluted antibodies were injected over the surface of flow cells 1 and 4 during the association phase, followed by injecting running buffer as the dissociation phase. All the data were processed using Biacore T200 Evaluation software version 3.1. Flow cell 1 and a blank injection of buffer in each cycle were used as a double reference for Response Units subtraction. Kinetic data of the interaction between the antibodies and CD70 antigen were obtained through affinity measurement.
# [4] = biological target: T4, human CD70 expressed on the cell …; assay: flow cytometry on Raji cells
# Method: Binding activity of 2E7 or the isotype control with a target cell line (Raji) or a cell line (MCF-7) that has negligible level of CD70 expression were evaluated by flow cytometry (Beckman, Cytoflex). 3×10⁵ cells per well were seeded on a 96-well V-bottomed plate and incubated with 100 μl of 2E7 in serial dilutions. After 30 min incubation at 4° C., cells were washed twice with PBS, stained with 100 μl of 1:200 diluted PE-conjugated anti-human Fc in FACS buffer (1×PBS containing 1% BSA), then incubated at 4° C. for 30 min. Cells were finally washed two times with PBS and analyzed by flow cytometric analysis.
# [5] = biological target: T4, human CD70 expressed on the cell …; assay: flow cytometry on U251 cells
# Method: The lead antibodies were tested for binding to renal carcinoma cells and glioblastoma cells expressing CD70 on the cell surface by flow cytometry. […] U251 cells were cultured with MEM medium containing of 10% FBS and 1% NEAA+1 mM sodium pyruvate. DBTRG-05MG cells were cultured with DMEM medium (Gibco, Cat #C11995500BT) containing of 10% FBS. Each of the lead antibodies and the controls were incubated for 30 mins with the different cell lines (3×10⁵ cells per well) in 0.2 ml FACS buffer (1×PBS with 0.1% BSA) at 4° C. Then, the cells were pelleted, washed, and incubated at 4° C. for 30 mins with 100 μl of 1:200 diluted PE-conjugated anti human Fc (Abcam, Ab98596) in FACS buffer. The cells were pelleted again, washed with PBS, resuspended in FACS buffer and analyzed by flow cytometer (Beckman, CytoFLEX).
# Antibodies 2H8 and 2D2 had slightly higher binding ability to the cell lines than that of antibody 69A7.
# [6] = biological target: T1, human CD70 recombinant protein; assay: ELISA, coated human CD70, IgG titrated
# Method: as §1
# [7] = biological target: T3, CD70 ECD (antigen immobilized on the …); assay: SPR (Biacore T200), CD70 ECD on CM5 chip, IgG as analyte
# Method: as §2, §3
binder,measurement,setting,value
B1,EC50,[1],0.0161 µg/mL
same,Kd,[2],0.979 nM
same,koff,[2],0.000357 s⁻¹
same,kon,[2],365000 M⁻¹ s⁻¹
same,fold greater affinity than parent antibody 69A7,[3],22 fold
same,EC50,[4],~19 nM
same,EC50,[5],4.03 nM
same,EC50 ratio against antibody 69A7,[6],1.5 times
same,Kd,[7],14 nM
same,koff,[7],0.00106 s⁻¹
same,kon,[7],75400 M⁻¹ s⁻¹
